Laboratory results as given in patent publication US20190040115A1 (IMMATICS BIOTECHNOLOGIES, published 2019).

The binders below were run against T1, HLA-A*02:01 (human) (assay: UV peptide exchange ELISA (anti-b2m); yield grade: + >10%, ++ >20%, +++ >50, ++++ >75%).
T1 construct: captured on streptavidin plates; also called peptide-receptive MHC molecules
Procedure, shortened: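 Absorbance at 450 nm from an anti-β2m sandwich ELISA reports how much stabilized MHC survives after UV irradiation cleaves a photolabile ligand and the candidate peptide takes its place. Yield is calculated against refolded HLA-A*02:01/MLA-001 standards.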

Row | Binder | peptide exchange yield
1 | SIDDVVKKL | 20 to 50%
2 | GTIPLIESL | 10 to 20%
3 | LLDTTQKYL | > 75%
4 | ILDNSPAFL | 50 to 75%
5 | SLGPIMLTKI | 20 to 50%
6 | LLDMSLVKL | 50 to 75%
7 | KLPGFPTQDDEV | 20 to 50%
8 | NLPSELPQL | 50 to 75%
9 | FADELSHLL | 50 to 75%
10 | LLDAFSIKL | 50 to 75%
11 | ILDGIIREL | 50 to 75%
12 | HTLPHEIVVNL | 50 to 75%
13 | ILLDRLFSV | > 75%
14 | GLDKVITVL | 50 to 75%
15 | SIDDSDPIV | 10 to 20%
16 | ILDYIHNGL | 50 to 75%
17 | AVDNILLKL | 50 to 75%
18 | IIDDKPIGL | 50 to 75%
19 | SLDEVAVSL | > 75%
20 | ILGDWSIQV | > 75%
21 | FLAEAARSL | > 75%
22 | TLLEVDAIVNA | > 75%
23 | NLQEKVPEL | 50 to 75%
24 | SIIPYLLEA | > 75%

Row | Binder | peptide exchange yield
25 | IIDDVMKEL | 20 to 50%
26 | FLDDGNQML | 50 to 75%
27 | LLDALQHEL | 50 to 75%
28 | VMFEYGMRL | > 75%
29 | FMYAGQLTL | > 75%
30 | LLAKAVQNV | 50 to 75%
31 | ELDKIYETL | 10 to 20%
32 | ILPEAQDYFL | > 75%
33 | ILDELVKSL | 50 to 75%
34 | GILSFLPVL | 50 to 75%
35 | QIDSIHLLL | 50 to 75%
36 | KLSVHVTAL | > 75%
37 | ALKDLVNLI | > 75%
38 | TTLGGFAKV | 20 to 50%
39 | SLAGLVLYV | > 75%
40 | IIDPPLHGQLL | 20 to 50%
41 | SIPDTIASV | 50 to 75%
42 | GIDDLHISL | 50 to 75%
43 | YVDSEGIVRM | 10 to 20%
44 | NLPNTNSILGV | 50 to 75%
45 | LIDEAAQML | 50 to 75%
46 | GLDTILQNL | > 75%
47 | GLLDVMYQV | > 75%
48 | NLDATVTAL | 50 to 75%
